Experimental findings from US20040171116A1 are described below.

The target of experiment [1] is mutated rMal d 1 (2781) (apple) (UniProt Q40280). As to the kind of experiment: Biacore SPR, BV16 on the chip, antigen injected at 5 concentrations.
The target of experiment [2] is rBet v 1.2801 (database accession number: Z80104) (birch). The experiment is described as above.
Experiment [3] addresses receptor-bound IgE on basophils of birch pollen allergic patients. As to the kind of experiment: cell-based or functional assay.
The target of experiment [4] is pooled IgE serum from birch allergic patients (FIG. 8A). As to the kind of experiment: solid phase IgE inhibition assay (ADVIA Centaur), reference rBet v 1.2801.
Experiment [5] shares this target. As to the kind of experiment: solid phase IgE inhibition assay (ADVIA Centaur), inhibitor at 3000 ng/test, competitor biotinylated rBet v 1.2801.

Where a chain is given by its changes, count along the chain named.

The Kd is a measure of binding affinity in units of concentration. A lower Kd goes with tighter binding. One may read the kon as the rate constant with which the complex forms. Lower therefore signals slow association. One may read the koff as a measure of how fast the partners let go of each other. In experiment [1], “monoclonal mouse IgG antibody BV16 raised against nBet v 1” showed a dissociation constant Kd of 0.27 nM and a kon of 120000 M⁻¹ s⁻¹. In experiment [2], this molecule showed a Kd of 0.24 nM, a koff of 2.5e-05 s⁻¹ and a kon of 100000 M⁻¹ s⁻¹.

B1: mutated rMal d 1 (2762), Q40280 2-159 (protein)
chain: GVYTYENEYTSVIPPARLFKAFVLDADNLIPKIAPQAIKHAEILEGDGGPGTIKKITFGEGSQYGYVKHKIDSVDEANYSYAYTLIEGDALTDTIEKVSYETKLVATPDGGSIIKSISHYHTKGDVEIMEEHVKAGKEKAHGLFKLIESYLLDHSDAYN
Turning to B1, the shift of the histamine release curve toward higher antigen concentrations compared to rBet v 1.2801 in experiment [3] came out at 20 fold.

B2: mutated rMal d 1 (2762) (protein)
chain: B1 chain
As for B2, the fold higher antigen concentration than rBet v 1.2801 to reach the same IgE inhibition (62%) in experiment [4] amounted to 500 fold. In experiment [5], this molecule returned a percent inhibition of binding of serum-IgE to biotinylated rBet v 1.2801 of 62%.

B3: mutated rMal d 1 (2781), Q40280 2-159 (protein)
chain: GVYTYENEYTSEIPPPRLFKAFVLDADNLIPKIAPQAIKHAENIEGNGGPGTIKKITFGEGSQYKYVKHRIDSVDHANYSYAYTLIEGDALTDTIEKVSYETKLVASGSGSIIKSISHYHTKGDVEIMEEHVKAGKEKAHGLFKLIESYLKDHPDAYN
Consider B3, for which, in experiment [3], the shift of the histamine release curve toward higher antigen concentrations compared to rBet v 1.2801 was determined as 2 fold.

B4: mutated rMal d 1 (2781) (protein)
chain: B3 chain
In the case of B4, the fold higher antigen concentration than rBet v 1.2801 to reach the same IgE inhibition (39%) in experiment [4] is 1000 fold. For the same molecule, the percent inhibition of binding of serum-IgE to biotinylated rBet v 1.2801 in experiment [5] worked out at 39%.

B5: mutated rMal d 1 (2760), Q40280 2-159 (protein)
chain: B3 chain with N28T, K32Q, N43I, I44L, E45S, N47D, K65G, R70K, H76E
Consider B5, for which the concentration required to trigger histamine release in patient (p) compared to rBet v 1.2801 in experiment [3] was 100 fold.
